T1: FcγRIIb extracellular domain with C-terminal His tag (human, UniProt P31994 43-217)
T1 construct: extracellular domain; Soluble receptor expressed in FreeStyle293 cells, used as analyte in Biacore; also called FcgRIIb; 2b; not shown: His tag at the C terminus
T1 sequence (looked up): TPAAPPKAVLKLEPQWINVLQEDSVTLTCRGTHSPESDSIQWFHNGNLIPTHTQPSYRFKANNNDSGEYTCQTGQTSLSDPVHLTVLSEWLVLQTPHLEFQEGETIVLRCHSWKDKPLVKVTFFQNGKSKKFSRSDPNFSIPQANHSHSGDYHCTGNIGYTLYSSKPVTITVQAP

T2: FcγRIIb (human, UniProt P31994 43-217)
T2 construct: extracellular domain; also called FcgRIIb; 2b; not shown: His tag at the C terminus
T2 sequence (looked up): T1 sequence (looked up)

T3: FcγRIIa H (human, UniProt P12318 34-217)
T3 construct: extracellular domain; also called FcgRIIa H type; 2aH
T3 sequence (looked up): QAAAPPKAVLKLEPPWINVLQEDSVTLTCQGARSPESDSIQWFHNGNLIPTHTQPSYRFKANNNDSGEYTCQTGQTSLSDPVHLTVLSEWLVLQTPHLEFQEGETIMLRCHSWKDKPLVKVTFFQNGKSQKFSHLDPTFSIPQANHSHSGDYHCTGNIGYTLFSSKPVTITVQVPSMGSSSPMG

T4: FcγRIIb (human, UniProt P31994 43-217)
T4 construct: extracellular domain; also called FcgRIIb; 2b
T4 sequence (looked up): T1 sequence (looked up)

B1: GpH7-A5/GpH7-B3 variant L328_14T/GpL16-k0 (antibody, human IgG1, kappa)
heavy 1: not shown
heavy 2: not shown
light: DIVMTQSPLSLPVTPGEPASISCQASESLVHSNRNTYLHWYLQKPGQSPQLLIYKVSNRFSGVPDRFSGSGSGTDFTLKISRVEAEDVGVYYCSQNTHVPPTFGQGTKVEIERTVAAPSVFIFPPSDEQLKSGTASVVCLLNNFYPREAKVQWKVDNALQSGNSQESVTEQDSKDSTYSLSSTLTLSKADYEKHKVYACEVTHQGLSSPVTKSFNRGEC
notes: Heterodimerized anti-glypican-3 IgG1; L328T (EU) only in the GpH7-B3 chain; also called He Ab
B2: GpH7-A5/GpH7-B3 variant P331_18N/GpL16-k0 (antibody, human IgG1, kappa)
heavy 1: not shown
heavy 2: not shown
light: B1 light
notes: Heterodimerized anti-glypican-3 IgG1; P331N (EU) only in the GpH7-B3 chain; also called He Ab
B3: GpH7-A5/GpH7-B3 variant P331_11K/GpL16-k0 (antibody, human IgG1, kappa)
heavy 1: not shown
heavy 2: not shown
light: B1 light
notes: Heterodimerized anti-glypican-3 IgG1; P331K (EU) only in the GpH7-B3 chain; also called He Ab
B4: GpH7-A5/GpH7-B3 variant L328_20W/GpL16-k0 (antibody, human IgG1, kappa)
heavy 1: not shown
heavy 2: not shown
light: B1 light
notes: Heterodimerized anti-glypican-3 IgG1; L328W (EU) only in the GpH7-B3 chain; also called He Ab
B5: GpH7-A5/GpH7-B3 variant I332_11K/GpL16-k0 (antibody, human IgG1, kappa)
heavy 1: not shown
heavy 2: not shown
light: B1 light
notes: Heterodimerized anti-glypican-3 IgG1; I332K (EU) only in the GpH7-B3 chain; also called He Ab
B6: GpH7-A5/GpH7-B3 variant L328_07I/GpL16-k0 (antibody, human IgG1, kappa)
heavy 1: not shown
heavy 2: not shown
light: B1 light
notes: Heterodimerized anti-glypican-3 IgG1; L328I (EU) only in the GpH7-B3 chain; also called He Ab
B7: GpH7-A5/GpH7-B3 variant P331_16H/GpL16-k0 (antibody, human IgG1, kappa)
heavy 1: not shown
heavy 2: not shown
light: B1 light
notes: Heterodimerized anti-glypican-3 IgG1; P331H (EU) only in the GpH7-B3 chain; also called He Ab
B8: GpH7-A5/GpH7-B3 variant L328_16H/GpL16-k0 (antibody, human IgG1, kappa)
heavy 1: not shown
heavy 2: not shown
light: B1 light
notes: Heterodimerized anti-glypican-3 IgG1; L328H (EU) only in the GpH7-B3 chain; also called He Ab
B9: GpH7-A5/GpH7-B3 variant I332_06M/GpL16-k0 (antibody, human IgG1, kappa)
heavy 1: not shown
heavy 2: not shown
light: B1 light
notes: heterodimerized IgG1; alteration in the GpH7-B3 H chain only; also called He Ab
B10: GpH7-A5/GpH7-B3 variant I332_02A/GpL16-k0 (antibody, human IgG1, kappa)
heavy 1: not shown
heavy 2: not shown
light: B1 light
notes: as for B9
B11: GpH7-A5/GpH7-B3 variant I332_15Y/GpL16-k0 (antibody, human IgG1, kappa)
heavy 1: not shown
heavy 2: not shown
light: B1 light
notes: as for B9
B12: GpH7-A5/GpH7-B3 variant I332_14T/GpL16-k0 (antibody, human IgG1, kappa)
heavy 1: not shown
heavy 2: not shown
light: B1 light
notes: as for B9
B13: GpH7-A5/GpH7-B3 variant I332_04F/GpL16-k0 (antibody, human IgG1, kappa)
heavy 1: not shown
heavy 2: not shown
light: B1 light
notes: as for B9
B14: GpH7-A5/GpH7-B3 variant P331_20W/GpL16-k0 (antibody, human IgG1, kappa)
heavy 1: not shown
heavy 2: not shown
light: B1 light
notes: as for B9
B15: GpH7-A5/GpH7-B3 variant T335_02A/GpL16-k0 (antibody, human IgG1, kappa)
heavy 1: not shown
heavy 2: not shown
light: B1 light
notes: Heterodimerized anti-glypican-3 IgG1; substitution in only one H chain (the GpH7-B3 chain); also called He Ab
B16: GpH7-A5/GpH7-B3 variant T335_05P/GpL16-k0 (antibody, human IgG1, kappa)
heavy 1: not shown
heavy 2: not shown
light: B1 light
notes: as for B15
B17: GpH7-A5/GpH7-B3 variant T335_06M/GpL16-k0 (antibody, human IgG1, kappa)
heavy 1: not shown
heavy 2: not shown
light: B1 light
notes: as for B15

Molecular target: T5, FcγRIIIa extracellular domain with C-terminal His tag (human, UniProt P08637 17-208)
T5 construct: extracellular domain; also called FcgRIIIa; 3a; not shown: His tag at the C terminus
Experiment: SPR (Biacore), antibody captured on antigen peptide chip, FcγR as analyte
Method: (§1) Analysis of interaction between objective antibody and the FcγR was carried out using Biacore T100 (GE Healthcare). HBS-EP+ (GE Healthcare) was used as the running buffer, and the measurement temperature was set to 25° C. Chips produced by immobilizing the antigen peptide by the amine coupling method to a Series S Sencor Chip CM5 (GE Healthcare), or alternatively, chips produced by allowing preliminarily biotinylated antigen peptides to interact with and immobilize onto a Series S Sensor Chip SA (certified) (GE Healthcare) were used. Antibodies of interest were captured onto an antigen peptide-immobilized chip, and allowed to interact to each FcγR diluted with running buffer. To regenerate and repeatedly use the chip, the antibodies captured on the chip were washed off by reacting 10 mM glycine-HCl, pH 1.5.
(§2) The FcγR-binding activity of each antibody was assessed primarily using as an indicator the FcγR-binding activity and dissociation constant for FcγR.

T5 sequence (P08637 17-208): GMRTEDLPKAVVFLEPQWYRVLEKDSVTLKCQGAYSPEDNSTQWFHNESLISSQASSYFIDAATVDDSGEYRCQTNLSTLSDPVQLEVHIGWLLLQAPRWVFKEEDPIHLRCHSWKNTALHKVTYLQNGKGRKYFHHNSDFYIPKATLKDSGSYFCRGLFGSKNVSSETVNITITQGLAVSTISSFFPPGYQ

He/Con_3a	Binder
75.3 relative binding (GpH7-A5/GpH7-B3/GpL16-k0 = 100)	B1
73.4 relative binding (GpH7-A5/GpH7-B3/GpL16-k0 = 100)	B2
67.5 relative binding (GpH7-A5/GpH7-B3/GpL16-k0 = 100)	B3
37.4 relative binding (GpH7-A5/GpH7-B3/GpL16-k0 = 100)	B4
45.1 relative binding (GpH7-A5/GpH7-B3/GpL16-k0 = 100)	B5
84 relative binding (GpH7-A5/GpH7-B3/GpL16-k0 = 100)	B6
80.2 relative binding (GpH7-A5/GpH7-B3/GpL16-k0 = 100)	B7
54.3 relative binding (GpH7-A5/GpH7-B3/GpL16-k0 = 100)	B8

Molecular target: T1, FcγRIIb extracellular domain with …
Experiment: as above
Method: as §1, §2

He/Con_2b	Binder
141 relative binding (GpH7-A5/GpH7-B3/GpL16-k0 = 100)	B1
99.2 relative binding (GpH7-A5/GpH7-B3/GpL16-k0 = 100)	B2
84.7 relative binding (GpH7-A5/GpH7-B3/GpL16-k0 = 100)	B3
235 relative binding (GpH7-A5/GpH7-B3/GpL16-k0 = 100)	B4
70.9 relative binding (GpH7-A5/GpH7-B3/GpL16-k0 = 100)	B5
160 relative binding (GpH7-A5/GpH7-B3/GpL16-k0 = 100)	B6
116 relative binding (GpH7-A5/GpH7-B3/GpL16-k0 = 100)	B7
80.6 relative binding (GpH7-A5/GpH7-B3/GpL16-k0 = 100)	B8

Molecular target: T5, FcγRIIIa extracellular domain with …
Experiment: SPR; He/Con_3a divided by He/Con_2b (FcγRIIIa over FcγRIIb)
Method: as §1, §2

He_3a/2b (IIIa/IIb)	Binder
0.53 ratio	B1
0.74 ratio	B2
0.8 ratio	B3
0.16 ratio	B4
0.64 ratio	B5
0.52 ratio	B6
0.69 ratio	B7
0.67 ratio	B8

Molecular target: T2, FcγRIIb
Experiment: SPR (Biacore), antibody captured, FcγR as analyte; binding as % of GpH7-A5/GpH7-B3/GpL16-k0

He/Con_2b	Binder
105 % of control	B9
103 % of control	B10
101 % of control	B11
106 % of control	B12
104 % of control	B13
111 % of control	B14

Molecular target: T6, FcγRIa (human, UniProt P12314 16-292)
T6 construct: extracellular domain; also called FcgRI; 1a; not shown: His tag at the C terminus
Experiment: as above

T6 sequence (P12314 16-292): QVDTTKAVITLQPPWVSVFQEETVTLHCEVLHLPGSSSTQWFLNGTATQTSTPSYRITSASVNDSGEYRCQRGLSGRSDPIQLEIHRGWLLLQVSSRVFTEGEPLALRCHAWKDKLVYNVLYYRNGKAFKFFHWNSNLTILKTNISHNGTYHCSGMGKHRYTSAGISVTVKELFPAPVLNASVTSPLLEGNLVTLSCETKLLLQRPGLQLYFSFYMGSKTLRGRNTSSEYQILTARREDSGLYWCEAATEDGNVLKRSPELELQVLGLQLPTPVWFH

He/Con_1a	Binder
92.3 % of control	B9
88.3 % of control	B10
88.8 % of control	B11
91.8 % of control	B12
93.6 % of control	B13
94.5 % of control	B14

Molecular target: T3, FcγRIIa H
Experiment: SPR (Biacore), antibody captured on antigen-peptide chip, FcγR as analyte; binding relative to GpH7-A5/GpH7-B3/GpL16-k0 = 100

He/Con_2aH	Binder
101 % of HeCon Ab	B15
108 % of HeCon Ab	B16
103 % of HeCon Ab	B17

Molecular target: T4, FcγRIIb
Experiment: as above

He/Con_2b	Binder
94 % of HeCon Ab	B15
99.9 % of HeCon Ab	B16
99.4 % of HeCon Ab	B17

— patent US20180155451A1 (published 2018)
